This is an account of results in patent US20260132182A1 (published 2026).

One test addresses human GLP-1 receptor (human, UniProt P43220 24-463). Briefly: cell-based or functional assay.
In test [1] the target is T1, human amylin-3 (a) receptor (human, UniProt P30988 25-474; O60896 24-148).
T1 sequence (looked up) 1: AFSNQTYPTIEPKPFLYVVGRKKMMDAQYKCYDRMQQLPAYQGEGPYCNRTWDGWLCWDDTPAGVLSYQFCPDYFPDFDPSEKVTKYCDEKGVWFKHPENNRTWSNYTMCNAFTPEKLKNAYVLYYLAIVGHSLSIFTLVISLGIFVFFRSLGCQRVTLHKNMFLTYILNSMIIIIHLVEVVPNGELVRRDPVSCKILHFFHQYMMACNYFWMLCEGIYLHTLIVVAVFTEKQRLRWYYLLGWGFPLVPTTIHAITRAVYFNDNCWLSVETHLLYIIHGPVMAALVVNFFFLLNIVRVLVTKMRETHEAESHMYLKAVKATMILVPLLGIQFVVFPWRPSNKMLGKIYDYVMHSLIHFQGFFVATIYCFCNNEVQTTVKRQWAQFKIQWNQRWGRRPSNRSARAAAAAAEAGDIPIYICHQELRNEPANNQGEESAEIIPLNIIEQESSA
T1 sequence (looked up) 2: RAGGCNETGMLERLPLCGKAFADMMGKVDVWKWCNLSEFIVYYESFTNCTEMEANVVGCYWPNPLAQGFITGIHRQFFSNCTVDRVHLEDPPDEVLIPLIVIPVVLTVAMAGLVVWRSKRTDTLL
Briefly: cell-based or functional assay.

Starred links: 1 amine or outer side, 2 acyl side, 3 side chain; linkers in the order of their positions; H or OH if unused. Non-standard residues stand in square brackets, D forms with d. Groups on a side chain read outwards from the residue. *: point of attachment. C20 diacid = O=C(O)CCCCCCCCCCCCCCCCCCC(=O)*; C18 diacid = O=C(O)CCCCCCCCCCCCCCCCC(=O)*; C16 diacid = O=C(O)CCCCCCCCCCCCCCC(=O)*; γGlu = O=C(O)[C@H](CCC(=O)[*:2])N[*:1]; C14 diacid = O=C(O)CCCCCCCCCCCCC(=O)*; εLys = N[C@@H](CCCCN[*:1])C(=O)[*:2]; Trx = NC[C@H]1CC[C@H](C(=O)O)CC1; AEEA = NCCOCCOCC(=O)O; Aib = CC(C)(N)C(=O)O; Ahx = NCCCCCC(=O)O

B1: Compound 0581 (peptide)
peptide: H[Aib]EGTFTSDVSSYLEEQAARK([AEEA-AEEA-γGlu-C20 diacid])FIEWLVRGASELSTAALGRLSAELHELATLPRTETGSGSP-NH2
For the molecule B1, the “Human GLP-1R potency [EC50 (pM)]” value with human GLP-1 receptor stood at 17 pM. Moreover, in test [1], the “Human AmyR3 potency [EC50 (pM)]” value came out at 26.4 pM.

B2: Compound 0639 (peptide)
peptide: H[Aib]EGTFTSDVSSYLEEQAARK([AEEA-AEEA-γGlu-C18 diacid])FIAWLVRGRGGGGGEASELSTAALGRLSAELHELATLPRTETGSGSP-NH2
Regarding B2, the “Human GLP-1R potency [EC50 (pM)]” value with human GLP-1 receptor is 1.5 pM. For the same molecule, the “Human AmyR3 potency [EC50 (pM)]” value in test [1] stood at 4.6 pM.

B3: Compound 0561 (peptide)
peptide: H[Aib]EGTFTSDVSSYLEEQAARK([AEEA-AEEA-γGlu-Trx-C20 diacid])FIAWLVRGRGGGGGEASELSTAALGRLSAELHELATLPRTETGSGSP-NH2
Turning to B3, in the test with human GLP-1 receptor, the “Human GLP-1R potency [EC50 (pM)]” value was 17.5 pM. In test [1], the “Human AmyR3 potency [EC50 (pM)]” value was determined as 10.7 pM.

B4: Compound 0580 (peptide)
peptide: H[Aib]EGTFTSDVSSYLEEQAARK([AEEA-AEEA-γGlu-C20 diacid])FIAWLVRGGASELSTAALGRLSAELHELATLPRTETGSGSP-NH2
For B4, the “Human GLP-1R potency [EC50 (pM)]” value with human GLP-1 receptor came out at 7.4 pM. Also, in test [1], the “Human AmyR3 potency [EC50 (pM)]” value is 9.3 pM.

B5: Compound 0575 (peptide)
peptide: H[Aib]EGTFTSDVSK([AEEA-AEEA-γGlu-C16 diacid])YLEEQAARK([AEEA-AEEA-γGlu-C16 diacid])FIAWLVRGRQEGGGGGASELSTAALGRLSAELHELATLPRTETGSGSP-NH2
Take B5: the “Human GLP-1R potency [EC50 (pM)]” value in the test with human GLP-1 receptor is 5.6 pM. For the same molecule, the “Human AmyR3 potency [EC50 (pM)]” value in test [1] turned out to be 8.3 pM.

B6: Compound 0629 (peptide)
peptide: H[Aib]EGTFTSDVSK([AEEA-AEEA-γGlu-C16 diacid])YLEEQAARKFIEWLVRGAAEASELSTAALGRLSAELHELATLPRTETGSGSP-NH2
modifications: not fully specified (residue 21)
B6: the “Human GLP-1R potency [EC50 (pM)]” value with human GLP-1 receptor is 7.9 pM. Besides, the “Human AmyR3 potency [EC50 (pM)]” value in test [1] stood at 97.5 pM.

B7: Compound 0630 (peptide)
peptide: H[Aib]EGTFTSDVSK([Ahx-γGlu-γGlu-C16 diacid])YLEEQAARK([Ahx-γGlu-γGlu-C16 diacid])FIEWLVRGAAEASELSTAALGRLSAELHELATLPRTETGSGSP-NH2
Turning to B7, the “Human GLP-1R potency [EC50 (pM)]” value in the test with human GLP-1 receptor was found to be 7.1 pM. In addition, in test [1], the “Human AmyR3 potency [EC50 (pM)]” value stood at 110 pM.

B8: Compound 0640 (peptide)
peptide: H[Aib]EGTFTSDVSK([AEEA-AEEA-γGlu-C18 diacid])YLEEQAAREFIAWLVRGRGGGGGEASELSTAALGRLSAELHELATLPRTETGSGSP-NH2
In the case of B8, in the test with human GLP-1 receptor, the “Human GLP-1R potency [EC50 (pM)]” value turned out to be 2.3 pM. The “Human AmyR3 potency [EC50 (pM)]” value in test [1] worked out at 6 pM.

B9: Compound 0577 (peptide)
peptide: H[Aib]EGTFTSDVSK([AEEA-AEEA-γGlu-C16 diacid])YLEEQAARKFIEWLVRGRGEASELSTAALGRLSAELHELATLPRTETGSGSP-NH2
modifications: not fully specified (residue 21)
As for B9, the “Human GLP-1R potency [EC50 (pM)]” value with human GLP-1 receptor was found to be 5.6 pM. Moreover, the “Human AmyR3 potency [EC50 (pM)]” value in test [1] was determined as 19.1 pM.

B10: Compound 0633 (peptide)
peptide: H[Aib]EGTFTSDVSSYLEEQAARK([γGlu-γGlu-γGlu-γGlu-C20 diacid])FIAWLVRGRGGGGGEASELSTAALGRLSAELHELATLPRTETGSGSP-NH2
B10: the “Human GLP-1R potency [EC50 (pM)]” value in the test with human GLP-1 receptor turned out to be 28.2 pM. Further, the “Human AmyR3 potency [EC50 (pM)]” value in test [1] was 5.3 pM.

B11: Compound 0057 (peptide)
peptide: H[Aib]EGTFTSDVSSYLEGQAAK([AEEA-AEEA-γGlu-C18 diacid])EFIAWLVRGRGGQEK([AEEA-AEEA-γGlu-C18 diacid])GQEPEASELSTAALGRLSAELHELATLPRTETGSGSP-NH2
In the case of B11, in the test with human GLP-1 receptor, the “Human GLP-1R potency [EC50 (pM)]” value was determined as 59 pM. For the same molecule, the “Human AmyR3 potency [EC50 (pM)]” value in test [1] amounted to 165 pM.

B12: Compound 0576 (peptide)
peptide: H[Aib]EGTFTSDVSK([AEEA-AEEA-γGlu-C16 diacid])YLEEQAARKFIEWLVRGRGEGGGGGASELSTAALGRLSAELHELATLPRTETGSGSP-NH2
modifications: not fully specified (residue 21)
For B12, in the test with human GLP-1 receptor, the “Human GLP-1R potency [EC50 (pM)]” value turned out to be 2.9 pM. For the same molecule, in test [1], the “Human AmyR3 potency [EC50 (pM)]” value was 10.1 pM.

B13: Compound 0565 (peptide)
peptide: H[Aib]EGTFTSDVSK([AEEA-AEEA-γGlu-C20 diacid])YLEEQAAREFIAWLVRGRGGGGGEASELSTAALGRLSAELHELATLPRTETGSGSP-NH2
Turning to B13, the “Human GLP-1R potency [EC50 (pM)]” value with human GLP-1 receptor was 6.4 pM. The “Human AmyR3 potency [EC50 (pM)]” value in test [1] is 6.2 pM.

B14: Compound 0071 (peptide)
peptide: H[Aib]EGTFTSDVSSYLEGQAAK([AEEA-AEEA-γGlu-C18 diacid])EFIAWLVRGRGGQEPGQEPK([AEEA-AEEA-γGlu-C18 diacid])EASELSTAALGRLSAELHELATLPRTETGSGSP-NH2
Regarding B14, the “Human GLP-1R potency [EC50 (pM)]” value with human GLP-1 receptor was determined as 69.4 pM. In test [1], the “Human AmyR3 potency [EC50 (pM)]” value worked out at 159 pM.

B15: Compound 0637 (peptide)
peptide: H[Aib]EGTFTSDVSSYLEEQAAREFIAWLVRGRK([AEEA-AEEA-γGlu-C18 diacid])GGGGSGGGEASELSTAALGRLSAELHELATLPRTETGSGSP-NH2
Turning to B15, the “Human GLP-1R potency [EC50 (pM)]” value in the test with human GLP-1 receptor came to 1.9 pM. Besides, the “Human AmyR3 potency [EC50 (pM)]” value in test [1] is 14.1 pM.

B16: Compound 0578 (peptide)
peptide: H[Aib]EGTFTSDVSK([AEEA-AEEA-γGlu-C16 diacid])YLEEQAARKFIAWLVRGRQEASELSTAALGRLSAELHELATLPRTETGSGSP-NH2
modifications: not fully specified (residue 21)
With B16, in the test with human GLP-1 receptor, the “Human GLP-1R potency [EC50 (pM)]” value turned out to be 2.5 pM. In addition, the “Human AmyR3 potency [EC50 (pM)]” value in test [1] turned out to be 26.9 pM.

B17: Compound 0635 (peptide)
peptide: H[Aib]EGTFTSDVSK([AEEA-AEEA-γGlu-C14 diacid])YLEEQAARKFIAWLVRGRK([AEEA-AEEA-γGlu-C14 diacid])GGEASELSTAALGRLSAELHELATLPRTETGSGSP-NH2
modifications: not fully specified (residue 21)
In the case of B17, the “Human GLP-1R potency [EC50 (pM)]” value with human GLP-1 receptor was 7.3 pM. In test [1], the “Human AmyR3 potency [EC50 (pM)]” value turned out to be 78.9 pM.

B18: Compound 0562 (peptide)
peptide: H[Aib]EGTFTSDVSSYLEEQAARK([AEEA-AEEA-γGlu-C20 diacid])FIAWLVRGRGGGGGEASELSTAALGRLSAELHELATLPRTETGSGSP-NH2
For the molecule B18, the “Human GLP-1R potency [EC50 (pM)]” value with human GLP-1 receptor was determined as 19.3 pM. Also, the “Human AmyR3 potency [EC50 (pM)]” value in test [1] stood at 4.1 pM.

B19: Compound 0634 (peptide)
peptide: H[Aib]EGTFTSDVSK([γGlu-γGlu-γGlu-γGlu-C16 diacid])YLEEQAARK([γGlu-γGlu-γGlu-γGlu-C16 diacid])FIAWLVRGRGEASELSTAALGRLSAELHELATLPRTETGSGSP-NH2
With B19, the “Human GLP-1R potency [EC50 (pM)]” value with human GLP-1 receptor turned out to be 14.7 pM. Besides, the “Human AmyR3 potency [EC50 (pM)]” value in test [1] amounted to 59.4 pM.

B20: Compound 0552 (peptide)
peptide: H[Aib]EGTFTSDVSSYLEEQAAREFIAWLVRGRK([εLys-AEEA-AEEA-γGlu-C20 diacid])GGGGEASELSTAALGRLSAELHELATLPRTETGSGSP-NH2
Take B20: the “Human GLP-1R potency [EC50 (pM)]” value with human GLP-1 receptor turned out to be 4.7 pM. For the same molecule, the “Human AmyR3 potency [EC50 (pM)]” value in test [1] turned out to be 6.9 pM.

B21: Compound 0638 (peptide)
peptide: H[Aib]EGTFTSDVSSYLEEQAAREFIAWLVRGRK([AEEA-AEEA-γGlu-C20 diacid])GGGGSGGGEASELSTAALGRLSAELHELATLPRTETGSGSP-NH2
Turning to B21, the “Human GLP-1R potency [EC50 (pM)]” value with human GLP-1 receptor was determined as 4.6 pM. For the same molecule, the “Human AmyR3 potency [EC50 (pM)]” value in test [1] came out at 6.9 pM.

B22: Compound 0009 (peptide)
peptide: H[Aib]EGTFTSDVSSYLEGQAAREFIAWLVRGK([AEEA-AEEA-γGlu-C18 diacid])GEGEGEEASELSTAALGRLSAELHELATLPRTETGSGSP-NH2
Take B22: the “Human GLP-1R potency [EC50 (pM)]” value in the test with human GLP-1 receptor amounted to 7.9 pM. Further, the “Human AmyR3 potency [EC50 (pM)]” value in test [1] came out at 49.5 pM.

B23: Compound 0564 (peptide)
peptide: H[Aib]EGTFTSDVSK([AEEA-Lys])YLEEQAAREFIAWLVRGRGGGGGEASELSTAALGRLSAELHELATLPRTETGSGSP-NH2
modifications: also: Lys on Ado carries two C16 diacid-gGlu-Ado-Ado groups, on its alpha and epsilon amines
Take B23: the “Human GLP-1R potency [EC50 (pM)]” value with human GLP-1 receptor came to 24.5 pM. Also, the “Human AmyR3 potency [EC50 (pM)]” value in test [1] was 14.5 pM.

B24: Compound 0648 (peptide)
peptide: HWEGTFTSDVSSYLEEQAAREFIAWLVRGRK([AEEA-AEEA-γGlu-C18 diacid])GGGGEASELSTAALGRLSAELHELATLPRTETGSGSP-NH2
With B24, in the test with human GLP-1 receptor, the “Human GLP-1R potency [EC50 (pM)]” value came to 17 pM. The “Human AmyR3 potency [EC50 (pM)]” value in test [1] came to 9.2 pM.

B25: Compound 0632 (peptide)
peptide: H[Aib]EGTFTSDVSK([γGlu-γGlu-γGlu-γGlu-C20 diacid])YLEEQAAREFIEWLVRGAAEASELSTAALGRLSAELHELATLPRTETGSGSP-NH2
Take B25: in the test with human GLP-1 receptor, the “Human GLP-1R potency [EC50 (pM)]” value amounted to 18.8 pM. The “Human AmyR3 potency [EC50 (pM)]” value in test [1] was determined as 148 pM.
